Reference: patent publication US20190359653A1 (Genentech, published 2019)
Where two headings read alike, the source gives them in different places. Numbered stars: 1 amine (or outer) side, 2 acyl side, 3 side chain; on linkers, the order of the positions; unused ones are H or OH. Square brackets hold non-standard residues; d marks the D form. Ends that are not written are not given here. * marks the point of attachment. ξ: configuration not given here. Adp = 2-amino-3-decyloxy-propionic acid, CCCCCCCCCCOC[C@H](N[*:1])C(=O)[*:2]; Tbh = 6-hydroxy-L-norleucine, O=C([C@H](CCCCO[*:3])N[*:1])[*:2]; hPhe = N[C@@H](CCc1ccccc1)C(=O)O; ξGly(octyl) = CCCCCCCCC(N)C(=O)O; hLeu = CC(C)CC[C@H](N)C(=O)O; Octanoyl = CCCCCCCC(=O)*

T1: hFZD8 CRD-Fc (human, UniProt Q9H461 28-158, limits assumed)
T1 construct: domain: CRD; bought (R&D Systems); not shown: Fc part
T1 sequence (looked up): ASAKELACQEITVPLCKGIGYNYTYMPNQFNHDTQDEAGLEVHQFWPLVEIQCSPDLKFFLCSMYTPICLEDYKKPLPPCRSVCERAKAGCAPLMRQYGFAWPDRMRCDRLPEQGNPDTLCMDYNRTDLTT

B1: SEQ ID NO 33 (peptide)
peptide: FDFCSVMPQFIYCPGD
modifications: not fully specified; cysteine pairing not given here
notes: cyclic peptide library; also called Fz7-20

Assays:
[1] = target: T2, FZD7 receptor of HEK293-TB cells (human, UniProt O75084 33-574); assay: cell-based or functional assay
[2] = target: T2, FZD7 receptor of HEK293-TB cells; assay: cell-based or functional assay; remark: listed apart in the source
[3] = target: T2, FZD7 receptor of HEK293-TB cells; assay: cell-based or functional assay; remark: listed apart in the source
hFZD8 CRD-Fc [4] = target: T1, hFZD8 CRD-Fc; assay: spot phage ELISA
hFZD7 CRD-Fc [5] = target: T3, hFZD7 CRD-Fc (human, UniProt O75084 33-185); assay: spot phage ELISA
[6] = target: T2, FZD7 receptor of HEK293-TB cells; assay: cell-based or functional assay; remark: listed apart in the source
hFZD8 CRD-Fc [7] = target: T1, hFZD8 CRD-Fc; assay: spot phage ELISA; remark: listed apart in the source
hFZD7 CRD-Fc [8] = target: T3, hFZD7 CRD-Fc; assay: spot phage ELISA; remark: listed apart in the source

Binder	Best Fit IC50 (nM), Wnt3a-mediated β-catenin signaling in HEK293-TB cells (50 ng/mL mWnt3a) [6]	signal:noise ratio (hFZD8 CRD-Fc [7])	signal:noise ratio (hFZD7 CRD-Fc [8])	further results
Ac-LPSDNLEFWCHVMY-NH2 [Fz7-21N]	–	–	–	IC50 (µM), Wnt3a-mediated β-catenin signaling, TOPbrite reporter in HEK293-TB cells (50 ng/mL mWnt3a) [1]: 0.41 µM
Ac-LPSDDLEFW[dC]HVMY-NH2 [Fz7-21C]	–	–	–	fold reduction of the potency of Wnt1 inhibition against Fz7-21 (FIG. 2D) [2]: 16 fold; fold reduction of the potency of Wnt3a inhibition against Fz7-21 (FIG. 2D) [2]: 31 fold
Ac-LPSDDLEFWSHVMY-NH2 [Fz7-21S]	–	–	–	Reduction in fold potency vs. dimer [3]: > 9000 fold
LSSGKKVSSYWFNFWF [SEQ ID NO 30]	–	–	–	signal:noise ratio (hFZD8 CRD-Fc [4]): 1; signal:noise ratio (hFZD7 CRD-Fc [5]): 3.5
Ac-SDDLEFWCHVMY-NH2 (also: homodimer via Cys8 disulfide) [dFz7-21Δ2 (Q519)]	4.3 nM	–	–	IC50 (nM), TOPbrite reporter assay in HEK293-TB cells stimulated with mWnt3a (50 ng/mL) [3]: 8.8 nM; Reduction in fold potency vs. dimer [3]: 1 fold
Ac-LPSDDLEFWCHVMY-NH2 (also: homodimer via Cys10-Cys10 disulfide) [dFz7-21]	14.1 nM	–	–	IC50 (nM), TOPbrite reporter assay in HEK293-TB cells stimulated with mWnt3a (50 ng/mL) [3]: 11.1 nM; Reduction in fold potency vs. dimer [3]: 1 fold
TSDFSWCLSWCDLIFW (not fully specified; cysteine pairing not given here, cyclic peptide library) [SEQ ID NO 35]	–	1.27	28.4	–
Ac-LPSDDLEFWCHVMY-NH2 [Fz7-21]	–	–	–	IC50, Wnt1-stimulated β-catenin signaling, HEK293-TB cells transfected with 5 ng plasmid (FIG. 2C) [2]: 1090 nM; IC50, Wnt1-stimulated β-catenin signaling, HEK293-TB cells transfected with 25 ng plasmid (FIG. 2C) [2]: 2660 nM; IC50, Wnt3a-stimulated β-catenin signaling, HEK293-TB cells transfected with 5 ng pCDNA3.2-Wnt3a (FIG. 2B) [2]: 330 nM; IC50, Wnt3a-stimulated β-catenin signaling, HEK293-TB cells transfected with 25 ng pCDNA3.2-Wnt3a (FIG. 2B) [2]: 419 nM; IC50, Wnt3a-stimulated β-catenin signaling, HEK293-TB cells, recombinant mWnt3a 50 ng/mL (FIG. 2A) [2]: 93.7 nM; IC50 (µM), Wnt3a-mediated β-catenin signaling, TOPbrite reporter in HEK293-TB cells (50 ng/mL mWnt3a) [1]: 0.1 µM; IC50 (nM), TOPbrite reporter assay in HEK293-TB cells stimulated with mWnt3a (50 ng/mL) [3]: 465 nM; Reduction in fold potency vs. dimer [3]: 42 fold
FWFDFWFG [SEQ ID NO 31]	–	–	–	signal:noise ratio (hFZD8 CRD-Fc [4]): 0.8; signal:noise ratio (hFZD7 CRD-Fc [5]): 4.2
Ac-SDD[hPhe]EFWCHVMY-NH2 (also: dimer via disulfide bond at Cys8) [dFz7-21Δ2.L6Hof]	14.9 nM	–	–	–
FDFCSVMPHFIYCPGD (not fully specified; cysteine pairing not given here, cyclic peptide library) [SEQ ID NO 37]	–	1.12	27.5	–
B1	–	2.1	26	–
FDFCTVMPHFIYCPGD (not fully specified; cysteine pairing not given here, cyclic peptide library) [SEQ ID NO 36]	–	2.01	27.4	–
Ac-SDDLEFWCHV[Tbh]Y-NH2 (also: dimer via disulfide bond at Cys8) [dFz7-21Δ2.M13Tbh]	477 nM	–	–	–
SSDFSGCLSWCDLIFG (not fully specified; cysteine pairing not given here, cyclic peptide library) [SEQ ID NO 32]	–	1.39	28.4	–
Ac-SDDK(Octanoyl)EFWCHVMY-NH2 (also: dimer via disulfide bond at Cys8) [dFz7-21Δ2.L6KC (8)]	1170 nM	–	–	–
Ac-SDD[hLeu]EFWCHVMY-NH2 (also: dimer via disulfide bond at Cys8) [dFz7-21Δ2.L6Hol]	–	–	–	Best Fit IC50 (nM), Wnt3a-mediated β-catenin signaling in HEK293-TB cells (50 ng/mL mWnt3a), n = 2 [6]: 16600 nM
Ac-SDDLEFWCHV[Adp]Y-NH2 (also: dimer via disulfide bond at Cys8) [dFz7-21Δ2.M13Adp]	1410 nM	–	–	–
HLSDVCCSDWCDLVFW (not fully specified; cysteine pairing not given here, cyclic peptide library) [SEQ ID NO 34]	–	1.09	16.1	–
HLSDVFCSDWCDLVFW (not fully specified; cysteine pairing not given here, cyclic peptide library) [SEQ ID NO 38]	–	1.28	17.5	–
Ac-SDDLEFWCHV[ξGly(octyl)]Y-NH2 (also: dimer via disulfide bond at Cys8) [dFz7-21Δ2.M13C8]	14000 nM	–	–	–
